In paper PMC6456427:
Read-outs that look alike come from different tables or passages of the source.

How the values were obtained:
Assay in all cases: SEC
[1] = target: Actinobacillus ureae class Id ribonucleotide reductase α subunit (Actinobacillus ureae)
[2] = target: Actinobacillus ureae class Id ribonucleotide reductase α subunit (Actinobacillus ureae); remark: listed apart in the source
[3] = target: Flavobacterium johnsoniae class Id ribonucleotide reductase α subunit (Flavobacterium johnsoniae)

| stoichiometry N [1] | stoichiometry N [2] | stoichiometry N [3] | Substance |
| --- | --- | --- | --- |
| 2 | 2 |  | Actinobacillus ureae class Id ribonucleotide reductase α subunit (enzyme) |
|  |  | 2 | Flavobacterium johnsoniae class Id ribonucleotide reductase α subunit (enzyme) |
